Results as given in patent publication US20170306005A1 (NASCIENT, published 2017).
Changes are numbered by the printed parent chain. Names may count otherwise.

T1: mouse tenascin-C rCd4-His-FBG (rat; mouse, UniProt P05540 207-392, limits assumed)
T1 construct: domain: domains 3 and 4; C-terminal FBG fusion; biotinylated in the ELISA screen; also called Mu TNC; mouse TNC rCd4-His-FBG; not shown: 6His tag
T1 sequence (chain (part 1 of 2)): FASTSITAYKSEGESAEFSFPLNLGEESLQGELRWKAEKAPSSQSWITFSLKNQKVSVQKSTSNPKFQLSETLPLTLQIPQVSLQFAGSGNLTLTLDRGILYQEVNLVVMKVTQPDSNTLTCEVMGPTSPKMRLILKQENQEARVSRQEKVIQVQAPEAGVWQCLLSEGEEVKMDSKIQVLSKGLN
T1 sequence (chain (part 2 of 2)): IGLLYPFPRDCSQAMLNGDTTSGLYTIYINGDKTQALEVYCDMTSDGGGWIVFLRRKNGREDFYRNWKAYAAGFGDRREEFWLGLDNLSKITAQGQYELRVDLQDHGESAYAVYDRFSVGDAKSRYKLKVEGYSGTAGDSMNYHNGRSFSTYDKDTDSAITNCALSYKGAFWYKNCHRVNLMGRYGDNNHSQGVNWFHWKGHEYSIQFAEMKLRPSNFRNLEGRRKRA

T2: human tenascin-C rCd4-His-FBG (rat; human, UniProt P05540 207-392, limits assumed)
T2 construct: domain: domains 3 and 4; C-terminal FBG fusion; biotinylated in the ELISA and HTRF screens; also called Hu TNC; human TNC rCd4-His-FBG; not shown: 6His tag
T2 sequence (chain (part 1 of 2)): T1 sequence (chain (part 1 of 2))
T2 sequence (chain (part 2 of 2)): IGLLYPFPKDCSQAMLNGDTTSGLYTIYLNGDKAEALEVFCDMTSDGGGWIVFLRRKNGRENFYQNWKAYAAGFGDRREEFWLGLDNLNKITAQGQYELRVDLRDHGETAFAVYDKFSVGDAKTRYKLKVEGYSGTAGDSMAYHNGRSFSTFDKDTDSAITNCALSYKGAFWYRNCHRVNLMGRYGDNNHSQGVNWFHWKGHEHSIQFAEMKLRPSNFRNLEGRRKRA

T3: rat tenascin-C rCd4-His-FBG (rat, UniProt P05540 207-392, limits assumed)
T3 construct: domain: domains 3 and 4; C-terminal FBG fusion; also called Rat TNC; rat TNC rCD4-His-FBG; not shown: 6His tag
T3 sequence (chain (part 1 of 2)): T1 sequence (chain (part 1 of 2))
T3 sequence (chain (part 2 of 2)): T1 sequence (chain (part 2 of 2)) with A72T

T4: dog tenascin-C rCD4-His-FBG (rat; dog, UniProt P05540 207-392, limits assumed)
T4 construct: domain: domains 3 and 4; C-terminal FBG fusion; also called Dog TNC; not shown: 6His tag
T4 sequence (chain (part 1 of 2)): T1 sequence (chain (part 1 of 2))
T4 sequence (chain (part 2 of 2)): T1 sequence (chain (part 2 of 2)) with I29L, T34A, S89H, Q104R, E108K, S109T, S124T, N142A, Y152F

T5: human tenascin-R rCd4-His-FBG (rat; human, UniProt P05540 207-392, limits assumed)
T5 construct: domain: domains 3 and 4; C-terminal FBG fusion; also called Hu TNR; human TNR rCd4-His-FBG; not shown: 6His tag
T5 sequence (chain (part 1 of 2)): T1 sequence (chain (part 1 of 2))
T5 sequence (chain (part 2 of 2)): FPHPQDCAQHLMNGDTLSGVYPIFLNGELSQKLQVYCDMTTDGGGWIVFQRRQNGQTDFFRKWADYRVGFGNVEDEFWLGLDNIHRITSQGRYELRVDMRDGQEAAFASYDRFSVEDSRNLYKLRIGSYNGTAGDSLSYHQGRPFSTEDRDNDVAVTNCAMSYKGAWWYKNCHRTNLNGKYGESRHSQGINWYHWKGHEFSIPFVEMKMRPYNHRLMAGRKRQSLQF

B1: 165_13_B1 human IgG4 (antibody, V domains shown)
VH: QVQLVESGGGLVQPGRSLRLSCAASGFTFDDYAMHWVRQAPGKGLEWVSGISGSGGSTYYADSVKGRFTISRDNAKNSLYLQMNSLRAEDTALYYCAKVMSSMEDAFDIWGQGTMVTVSS
VL: DIQMTQSPASLPTPVGDRVTITCRASQYIQGFLNWYQQKPGKAPKLLIYDASNLETGVPSRFSGSGSGTDFTLTISSLQPEDFATYYCQQSYSTPQTFGQGTKVDIKR
notes: human IgG4 with hinge S241P
B2: 2A5 human IgG4 (antibody, V domains shown)
VH: EVRLVQSGAEVKKPGASVKVSCKVSGYTLTELSMHWVRQAPGKGLEWMGGFDPEDGETIYAQKFQGRVTMTEDTSTDTAYMELSSLRSEDTAVYYCATAQKETYALTYWGQGTLVTVSS
VL: B1 VL with P14S, K45R, D50A, N53T, E55Q, T56D, S67Y, Q96W, D105E
notes: human IgG4 with hinge S241P; also called 2A5 parent
B3: 165_13_D1 human IgG4 (antibody, V domains shown)
VH: B1 VH with V99G, M100T, S101R, S102G, M103E, E104G, A106T
VL: B1 VL
notes: human IgG4 with hinge S241P
B4: 162_02_C3 human IgG4 (antibody, V domains shown)
VH: B2 VH
VL: DIQMTQSPASLPTSVGDRVTITCRASQYIQGFLNWYQQKPGKAPRLLIYAASTLQDGVPSRFSGSGYGTDFTLTISSLQPEDFATYYCMQHYDGPWTFGQGTKVEIKR
notes: human IgG4 with hinge S241P; also called Antibody 162 02 C3 (derived from 2A5)
B5: 162_02_F3 human IgG4 (antibody, V domains shown)
VH: B2 VH
VL: B4 VL with M89Q, Q90N, H91Q, D93R
notes: human IgG4 with hinge S241P; also called Antibody 162 02 F3 (derived from 2A5)
B6: 165_13_D4 human IgG4 (antibody, V domains shown)
VH: B1 VH with V99G, M100T, S101V, S102G, M103E, E104G, A106T
VL: B1 VL
notes: human IgG4 with hinge S241P
B7: 161_01_F6 human IgG4 (antibody, V domains shown)
VH: B2 VH with T103N, Y104I, L106N, T107R, Y108H
VL: B4 VL with M89Q, H91S, D93S, G94T
notes: human IgG4 with hinge S241P; also called 160_01_F6; Antibody 161 01 F6, also known as 160 01 F6 (derived from 2A5)
B8: 161_01_A12 human IgG4 (antibody, V domains shown)
VH: B2 VH with K101P, E102T, T103A, Y104L, L106N
VL: B4 VL with M89Q, H91S, D93S, G94T
notes: human IgG4 with hinge S241P; also called Antibody 161 01 A12 (derived from 2A5)
B9: 162_02_D3 human IgG4 (antibody, V domains shown)
VH: B2 VH with K101I, E102H, T103P, Y104L, A105G
VL: B4 VL with M89Q, H91S, D93S, G94T
notes: human IgG4 with hinge S241P; also called Antibody 162 02 D3 (derived from 2A5)
B10: 162_02_C6 human IgG4 (antibody, V domains shown)
VH: B2 VH
VL: B4 VL with M89Q, Q90N, H91Q, D93A
notes: human IgG4 with hinge S241P; also called Antibody 162 02 C6 (derived from 2A5)
B11: 161_01_C09 human IgG4 (antibody, V domains shown)
VH: B2 VH with K101L, E102P, T103Y, Y104L, L106Q
VL: B4 VL with M89Q, H91S, D93S, G94T
notes: human IgG4 with hinge S241P; also called Antibody 161 01 C09 (derived from 2A5)
B12: 160_01_G2 human IgG4 (antibody, V domains shown)
VH: B2 VH with A99Y, Q100T, K101L, E102D, T103N, Y104M
VL: B4 VL with M89Q, H91S, D93S, G94T
notes: human IgG4 with hinge S241P; also called Antibody 160 01 G2 (derived from 2A5)
B13: 162_02_H5 human IgG4 (antibody, V domains shown)
VH: B2 VH
VL: B4 VL with M89Q, Q90N, H91Q, D93T
notes: human IgG4 with hinge S241P; also called Antibody 162 02 H5 (derived from 2A5)
B14: 161_01_H10 human IgG4 (antibody, V domains shown)
VH: B2 VH with K101P, E102V, T103W, Y104A, A105P, L106G
VL: B4 VL with M89Q, H91S, D93S, G94T
notes: human IgG4 with hinge S241P; also called Antibody 161 01 H10 (derived from 2A5)
B15: 165_13_B6 human IgG4 (antibody, V domains shown)
VH: B1 VH with V99G, M100Q, S101K, S102G, M103E, E104G, A106T
VL: B1 VL
notes: human IgG4 with hinge S241P

Tests used:
[1] = target: T1, mouse tenascin-C rCd4-His-FBG; experiment: SPR off-rate screen, captured IgG4 supernatant, 25 C
Method: (§1) The 31 scFv of interest were sub-cloned into a human IgG4 expression vector for generation of antibodies as human IgG4 with a hinge-stabilising mutation (S241P; Angal et al, 1993). […] Briefly, surface plasmon resonance (SPR) experiments were performed using a BIAcore T100 instrument and followed the protocol according to the Human antibody capture kit protocol (GE, BR-1008-39). For off-rate screening, 10,000 response units (RU) of anti-human Fc IgG (GE, BR-1008-39) was immobilised on flow-cells (FC1 and FC2) of a Series 5 CM5 dextran sensor chip (BR-1005-30) using EDC/NHS cross-linking chemistry according to the amine coupling kit protocol (GE, BR-1000-50). Culture supernatants containing expressed IgG4 were diluted 1:2 with 2×PBS-T and injected into FC2 (flowrate 5 μl/min, 60 s contact time) to enable antibody capture at 25° C. […] A fixed concentration of antigen (15 nM of human and mouse TNC rCd4-His-FBG and 100 nM of human TNR rCd4-His-FBG) was injected with a flow-path via FC 1 (reference flow cell) and FC 2 (antibody capture flow cell), with a flow rate of 30 μl/min, and the association and dissociation phases measured over 1 and 5 min time periods, respectively. Regeneration of the binding surface employed 3M MgCl₂ with 30 s contact time. Off rates were determined by reference cell subtraction and fitting the sensogram experimental data assuming a 1:1 interaction using BIAevaluation software (GE, BR-1005-97).

[2] = target: T2, human tenascin-C rCd4-His-FBG; experiment: as above
Method: as §1

[3] = target: T1, mouse tenascin-C rCd4-His-FBG; experiment: SPR, captured purified IgG4, 37 C
Method: (§2) Detailed kinetic parameters were evaluated for the 9 prioritised IgG4 antibodies. Binding characteristics were determined for interaction with human, rat and dog TNC rCD4-His-FBG, and human TNR rCD4-His-FBG. Kinetic assays followed essentially the same protocols as for the off-rate determinations described above, with some modifications as follows. […] Purified anti-FBG IgG4 was diluted to a concentration of 3.5 nM in PBS, pH 7.4, 0.05% Tween-20 and injected into FC2 at a flow rate of 10 μl/min, 60 s contact time. […] Antigens were prepared by doubling dilution in PBS, pH 7.4, 0.05% Tween-20 (highest concentration 100 nM except mouse rCD4-His-FBG which was 7 nM). Assays were performed at 37° C. (30 μl/min, 120 s contact time; mouse rCD4-His-FBGFBG 10 μl/min, 60 s contact time), with both the flow cell and injection chamber equilibrated to this temperature. As before, kinetic parameters were determined by reference cell subtraction and fitting the sensogram experimental data assuming a 1:1 interaction using BIAevaluation software (GE, BR-1005-97).

[4] = target: T3, rat tenascin-C rCd4-His-FBG; experiment: SPR, captured purified IgG4, 37 C
Method: as §2

[5] = target: T2, human tenascin-C rCd4-His-FBG; experiment: SPR, captured purified IgG4, 37 C
Method: as §2

[6] = target: T4, dog tenascin-C rCD4-His-FBG; experiment: SPR, captured purified IgG4, 37 C
Method: as §2

[7] = target: T5, human tenascin-R rCd4-His-FBG; experiment: SPR off-rate screen, captured IgG4 supernatant, 25 C
Method: as §1

| Binder | koff [1] [s⁻¹] | koff [2] [s⁻¹] | koff [7] [s⁻¹] | also measured |
| --- | --- | --- | --- | --- |
| B1 | 1.7e-06 | 1.5e-06 |  | Kd [3]: 0.96 nM; koff [3]: 0.000706 s⁻¹; kon [3]: 733000 M⁻¹ s⁻¹; Kd [4]: 2.2 nM; koff [4]: 0.00684 s⁻¹; kon [4]: 3.11e+06 M⁻¹ s⁻¹; Kd [5]: 0.26 nM; koff [5]: 0.00188 s⁻¹; kon [5]: 7.27e+06 M⁻¹ s⁻¹; Kd [6]: 2.85 nM; koff [6]: 0.0187 s⁻¹; kon [6]: 6.55e+06 M⁻¹ s⁻¹ |
| B2 |  | 0.0091 |  | Kd [3]: 123 nM; koff [3]: 0.0106 s⁻¹; kon [3]: 86800 M⁻¹ s⁻¹; Kd [5]: 23.8 nM; koff [5]: 0.0323 s⁻¹; kon [5]: 1.36e+06 M⁻¹ s⁻¹ |
| B3 | 3.9e-06 | 1.4e-07 | 0.0043 |  |
| B4 | 0.002 | 1.49e-06 | 0.635 |  |
| B5 | 0.00033 | < 1e-05 | 0.088 |  |
| B6 | 3.7e-06 | 6.2e-07 | 0.004 |  |
| B7 | 0.00171 | 2.8e-06 | 0.0025 |  |
| B8 | 4.3e-06 | 1.3e-06 | 0.0042 |  |
| B9 | 1.06e-06 | 3.9e-07 | 0.0064 |  |
| B10 | 0.00024 | 5.3e-06 | 0.028 |  |
| B11 | 2.3e-07 | 1.17e-07 | 0.00029 |  |
| B12 | 1.39e-05 | 1.25e-05 | 0.001 |  |
| B13 | 0.000167 | < 1e-05 | 0.082 |  |
| B14 | 1.9e-06 | 2.5e-05 | 0.0091 |  |
| B15 | 6.9e-06 | 5.6e-06 | 0.0037 |  |
